Measurements: US20080292760A1, “Semi-Solid Food Products and Methods For Their Production, Based on Inhibiting Amylase Starch Breakdown” (WAGENINGEN CENTRE FOR FOOD SCIENCES, priority 2004, published 2008)

Assay: amylase study: sensory rating of vanilla custard desserts with added amylase
Type: in vivo, human
Experimental: The role of salivary amylase in modifying texture sensations was evaluated in the following examples, in which the level of amylase activity was varied within subjects, rather than between subjects. Alpha-amylase was added in varying concentrations to starch and CMC (non-starch)-based vanilla custard desserts. Additionally, amylase activity was inhibited to various degrees by adding the pharmaceutical amylase inhibitor Acarbose (CAS nr. 56180-94-0) in various concentrations to the same test foods.
Eighteen subjects, 11 females and 7 males aged between 18 and 34 yrs, participated the ‘amylase study’ and 7 different subjects, all females aged between 39 and 56 yrs, participated in the ‘acarbose study’. The subjects participating in the latter study had been informed about acarbose and its possibly side effects if swallowed. To avoid these side effects, subjects expectorated rather than swallowed the acarbose samples. All subjects signed consent forms expressing their willingness to participate in the studies, and all had previously been screened for olfactory and taste disorders and had received extensive training in the description of sensory mouthfeel and afterfeel attributes for semi-solid foods. Testing took place at the sensory facilities of TNO-Nutrition and Food Research in Zeist, The Netherlands.
For the ‘amylase study’, two commercially available full-fat vanilla custard desserts (3 wt % fat AH vanille vla or “AH”, Albert Heijn Corp., Zaandam, The Netherlands; and 3 wt % fat Boerenland via or “BL”, Campina Corp., Woerden, The Netherlands) were used as the two starch-based vanilla custard desserts. For the ‘acarbose study’, Boerenland via was used again but the Albert Heijn via was replaced by a low-fat dairy custard (0.1 wt % fat Creamex, Creamex Corp., Rijkervoort, The Netherlands).
In both studies, the effect of amylase and acarbose on starch-based custards was compared with their effects on non-starch custards to verify amylase-starch interactions. A non-starch custard was produced using full-fat (3 wt %) commercially available milk (Campina Corp., Woerden, The Netherlands) and adding 0.85 wt % of sodium carboxy methylcellulose (or “CMC”) (Akuell AF 3295, Akzo Nobel Corp., Amersfoort, The Netherlands), 6.25 wt % of sugar and 0.33 wt % of vanilla powder. Yellow colorant (Egg yellow, Supercook, Leeds, United Kingdom) was added at 3.33 ml/l custard to match the color of the starch-based custards.
For the amylase study, a bacterial α-amylase (from Bacillus licheniformis, with 15 wt % NaCl and 25 wt % sucrose, Sigma Corp., Zwijndrecht, The Netherlands) was used to prepare amylase solutions at concentrations of 40, 160, and 640 units in 100 μl aliquots of water. This concentration range is similar to the range of individual amylase levels found across a group of young and healthy subjects (Engelen, unpublished results). The amylase concentrations, including a control of 0 units, were added to 5 ml samples of the starch-based custards. Only the highest concentration, 640 units, and the control were added to 5 ml samples of the CMC custard.
Panelists were seated in sensory booths with appropriate ventilation and lighting. Testing took place over either 3 (‘amylase study’) or 1.5 (‘acarbose study’) sessions of 2 hours. Within each session, subjects were presented with 20 trials during which they received in the amylase study each of the three custards once with the various amounts of amylase and with two different processing instructions. Over the 3 sessions, each custard was presented 3 times in each condition. In the ‘acarbose study’, each of the three custards with various amounts of acarbose were presented twice in the first session, and once in the second half session. The stimulus presentation order was randomized per subject and per session. The trials were presented at an average rate of one trial per 5 minutes. A break separated the first and the second half of each session. […]

[1] = R, AH custard, amylase 40 units
[2] = R, AH custard, amylase 160 units
[3] = R, AH custard, amylase 640 units
[4] = R, BL custard, amylase 40 units
[5] = R, BL custard, amylase 160 units
[6] = R, BL custard, amylase 640 units
[7] = R, CMC custard, amylase 640 units
[8] = U, AH custard, amylase 40 units
[9] = U, AH custard, amylase 160 units
[10] = U, AH custard, amylase 640 units
[11] = U, BL custard, amylase 40 units
[12] = U, BL custard, amylase 160 units
[13] = U, BL custard, amylase 640 units
[14] = U, CMC custard, amylase 640 units

B1: Amylase: bacterial α-amylase from Bacillus licheniformis, with 15 wt % NaCl and 25 wt % sucrose, Sigma Corp. (protein, UniProt P06278 30-512, looked up)
Alpha-amylase: ANLNGTLMQYFEWYMPNDGQHWKRLQNDSAYLAEHGITAVWIPPAYKGTSQADVGYGAYDLYDLGEFHQKGTVRTKYGTKGELQSAIKSLHSRDINVYGDVVINHKGGADATEDVTAVEVDPADRNRVISGEHRIKAWTHFHFPGRGSTYSDFKWHWYHFDGTDWDESRKLNRIYKFQGKAWDWEVSNENGNYDYLMYADIDYDHPDVAAEIKRWGTWYANELQLDGFRLDAVKHIKFSFLRDWVNHVREKTGKEMFTVAEYWQNDLGALENYLNKTNFNHSVFDVPLHYQFHAASTQGGGYDMRKLLNSTVVSKHPLKAVTFVDNHDTQPGQSLESTVQTWFKPLAYAFILTRESGYPQVFYGDMYGTKGDSQREIPALKHKIEPILKARKQYAYGAQHDYFDHHDIVGWTREGDSSVANSGLAALITDGPGGAKRMYVGRQNAGETWHDITGNRSEPVVINSEGWGEFHVNGGSVSIYVQR
modifications: formulated with NaCl and sucrose
- decrease of creamy mouthfeel (AH custard, amylase added): up to 25%
- airy-mo [1]: 25
- bitter/chem-fl [1]: 30
- creamy-af [1]: 38
- creamy-mo [1]: 44
- fatty-af [1]: 29
- heterogeneous-mo [1]: 26
- prickling-mo [1]: 19
- rough-af [1]: 26
- smooth-mo [1]: 65
- sticky-af [1]: 28
- temperature-mo [1]: 38
- thick-mo [1]: 41
- airy-mo [2]: 25
- bitter/chem-fl [2]: 38
- creamy-af [2]: 35
- creamy-mo [2]: 37
- fatty-af [2]: 31
- heterogeneous-mo [2]: 29
- prickling-mo [2]: 20
- rough-af [2]: 25
- smooth-mo [2]: 62
- sticky-af [2]: 29
- temperature-mo [2]: 35
- thick-mo [2]: 38
- airy-mo [3]: 25
- bitter/chem-fl [3]: 44
- creamy-af [3]: 34
- creamy-mo [3]: 35
- fatty-af [3]: 29
- heterogeneous-mo [3]: 33
- prickling-mo [3]: 25
- rough-af [3]: 23
- smooth-mo [3]: 61
- sticky-af [3]: 29
- temperature-mo [3]: 38
- thick-mo [3]: 41
- airy-mo [4]: 28
- bitter/chem-fl [4]: 22
- creamy-af [4]: 35
- creamy-mo [4]: 43
- fatty-af [4]: 28
- heterogeneous-mo [4]: 24
- prickling-mo [4]: 17
- rough-af [4]: 28
- smooth-mo [4]: 63
- sticky-af [4]: 29
- temperature-mo [4]: 37
- thick-mo [4]: 41
- airy-mo [5]: 29
- bitter/chem-fl [5]: 32
- creamy-af [5]: 35
- creamy-mo [5]: 45
- fatty-af [5]: 30
- heterogeneous-mo [5]: 27
- prickling-mo [5]: 19
- rough-af [5]: 26
- smooth-mo [5]: 63
- sticky-af [5]: 29
- temperature-mo [5]: 37
- thick-mo [5]: 40
- airy-mo [6]: 25
- bitter/chem-fl [6]: 40
- creamy-af [6]: 37
- creamy-mo [6]: 37
- fatty-af [6]: 30
- heterogeneous-mo [6]: 32
- prickling-mo [6]: 23
- rough-af [6]: 26
- smooth-mo [6]: 64
- sticky-af [6]: 29
- temperature-mo [6]: 37
- thick-mo [6]: 38
- airy-mo [7]: 36
- bitter/chem-fl [7]: 45
- creamy-af [7]: 39
- creamy-mo [7]: 39
- fatty-af [7]: 36
- heterogeneous-mo [7]: 34
- melting-mo [7]: 35
- prickling-mo [7]: 25
- rough-af [7]: 21
- smooth-mo [7]: 47
- sticky-af [7]: 37
- temperature-mo [7]: 44
- thick-mo [7]: 49
- vanilla-fl [7]: 30
- airy-mo [8]: 25
- bitter/chem-fl [8]: 35
- creamy-af [8]: 36
- creamy-mo [8]: 44
- fatty-af [8]: 29
- heterogeneous-mo [8]: 28
- prickling-mo [8]: 19
- rough-af [8]: 30
- smooth-mo [8]: 62
- sticky-af [8]: 31
- temperature-mo [8]: 41
- thick-mo [8]: 39
- airy-mo [9]: 27
- bitter/chem-fl [9]: 37
- creamy-af [9]: 37
- creamy-mo [9]: 39
- fatty-af [9]: 28
- heterogeneous-mo [9]: 27
- prickling-mo [9]: 19
- rough-af [9]: 27
- smooth-mo [9]: 65
- sticky-af [9]: 28
- temperature-mo [9]: 39
- thick-mo [9]: 38
- airy-mo [10]: 26
- bitter/chem-fl [10]: 47
- creamy-af [10]: 34
- creamy-mo [10]: 36
- fatty-af [10]: 28
- heterogeneous-mo [10]: 28
- prickling-mo [10]: 22
- rough-af [10]: 27
- smooth-mo [10]: 66
- sticky-af [10]: 31
- temperature-mo [10]: 40
- thick-mo [10]: 32
- airy-mo [11]: 27
- bitter/chem-fl [11]: 27
- creamy-af [11]: 37
- creamy-mo [11]: 42
- fatty-af [11]: 28
- heterogeneous-mo [11]: 27
- prickling-mo [11]: 17
- rough-af [11]: 30
- smooth-mo [11]: 65
- sticky-af [11]: 31
- temperature-mo [11]: 42
- thick-mo [11]: 37
- airy-mo [12]: 26
- bitter/chem-fl [12]: 32
- creamy-af [12]: 38
- creamy-mo [12]: 43
- fatty-af [12]: 29
- heterogeneous-mo [12]: 27
- prickling-mo [12]: 17
- rough-af [12]: 31
- smooth-mo [12]: 62
- sticky-af [12]: 32
- temperature-mo [12]: 42
- thick-mo [12]: 41
- airy-mo [13]: 27
- bitter/chem-fl [13]: 38
- creamy-af [13]: 35
- creamy-mo [13]: 39
- fatty-af [13]: 29
- heterogeneous-mo [13]: 33
- prickling-mo [13]: 20
- rough-af [13]: 31
- smooth-mo [13]: 66
- sticky-af [13]: 34
- temperature-mo [13]: 41
- thick-mo [13]: 37
- airy-mo [14]: 46
- bitter/chem-fl [14]: 52
- creamy-af [14]: 39
- creamy-mo [14]: 40
- fatty-af [14]: 41
- heterogeneous-mo [14]: 38
- melting-mo [14]: 32
- prickling-mo [14]: 24
- rough-af [14]: 21
- smooth-mo [14]: 49
- sticky-af [14]: 44
- temperature-mo [14]: 48
- thick-mo [14]: 53
- vanilla-fl [14]: 29
- effect on odor, mouthfeel or afterfeel attributes (non-starch CMC-based custard, added amylase): failed to affect any of the odor, mouthfeel or afterfeel attributes
- intensity of bitter/chemical flavor, change when amylase added (non-starch CMC-based custard, p=0.01): increased
- bitter/chemical flavor, change with increasing amylase concentration (starch-based custards): increased significantly
- creamy mouthfeel, change with increasing amylase concentration (starch-based custards, p<0.0001): decreased
- melting mouthfeel, change with increasing amylase concentration (starch-based custards, p=0.001): increased significantly
- vanilla flavor, change with increasing amylase concentration (starch-based custards, p=0.001): decreased
- thick mouthfeel, change with increasing amylase concentration (starch-based custards, p=0.004): decreased
- heterogeneous mouthfeel, change with increasing amylase concentration (starch-based custards, p=0.006): increased significantly
- fatty afterfeel, change with increasing amylase concentration (starch-based custards, p=0.05): decreased
